Data from patent US20090305339A1, “Polypeptides With Laccase Activity” (VIALACTIA BIOSCIENCES (NZ) LIMITED, priority 2006, published 2009).

How the values were obtained:
[1] = Oxidation of benzo[a]pyrene (HPLC); format: biochemical; details: 50 μM benzo[a]pyrene, HOBt, pH 4.5, overnight, room temperature
From the text: Procedures for cloning, expression and purification of laccase are described in the reference: Beloqui, A., et al. (2006), which is made part of the disclosure of the present application.
Benzo[a]pyrene was oxidized, however the oxidation products haven't been identified yet.

[2] = Laccase activity, violuric acid as substrate; format: biochemical
[3] = Decolorization of Poly R-478; format: biochemical; details: Poly R-478 0.025%, pH 4.5, room temperature, 0.2 units enzyme, 3500 min
Procedure: Decolorization of Poly-R 478 (0.025 w/v) in the presence or absence of HOBt (1-Hydroxybenzotriazole) (0.9 mM) was determined spectrophotometrically (520 nm) at room temperature in 100 mM sodium phosphate buffer pH 4.5.

[4] = Electrochemical analysis of immobilized laccase in the presence of DMP; details: for electrochemical activity (current): DMP
From the text: RL5 was immobilized on BAS glassy carbon electrodes (FIGS. 3B,D) or on gold electrodes (FIGS. 3A,C). Both materials provide different enzyme orientations:
(i) the carbon electrode presents hydroxyl groups on the surface, providing a laccase substrate-like structure, which makes the enzyme to immobilize preferably with the active site facing the electrode surface; and
(ii) gold provides high hydrophobic surface that avoids the contact between the high-hydrophilic density amino acid domain of the enzyme and the electrode, being the hydrophobic domains which preferably orient towards the gold surface.
Some differences in the electrochemical measurements were observed due to the different orientation of the enzyme on the electrode in the presence of substrate (DMP) (FIGS. 3A,B). Thus, when RL5 laccase was immobilized on gold (FIG. 3A), the activity in the presence of oxygen was of 0.38 microamperes (dashed line), whereas in the absence of oxygen it was of 0.69 microamperes (dotted line). Most likely, the enzyme is using approximately half of the electrons for the reduction of the substrate and the other half from the oxygen in the solution; however, in absence of oxygen, all the electrons are used from the electrode, giving a higher measurement value. When using the carbon electrode (FIG. 3B), the enzyme orients in such a way that the measure, in the presence of oxygen, was 2.8 microamperes (dashed line). This could be explained by the fact that 93% of the electrons are used from the electrode, either because of different enzyme orientations, or because the immobilization on carbon kept higher amount (approximately 7 times) of laccase active. In the carbon electrode the T2 copper oxidization potential site, +500 vs. normal hydrogen electrode (NHE) was determined.
The electrochemical measurements have been performed with BAS CV-50W voltammetric analyzer. For gold surface experiments, a gold BAS disc electrode has been used. The electrode was cleaned according to the following procedure: the electrode was firstly immersed in “piranha” solution, containing 1 part of hydrogen peroxide 33% v and 3 parts of sulphuric acid 98%, during 5 minutes, after which the electrode was rinsed thoroughly with milliQ water, and polished with Buehler® micropolish gamma alumina #3, 0.05 micron size, during 5 minutes, on a polishing cloth, further immersed into a milliQ water solution and exposed to ultrasounds for 15 minutes. Then, the electrode was cleaned with sulphuric acid oxidization cyclic voltammetry for 30 minutes. […] After 180 minutes from the first addition, the laccase-modified gold electrode was measured in 100 mM phosphate buffer (pH 6.0) in the presence of oxygen. […]

[5] = Electrochemical analysis of immobilized laccase in absence of substrate; details: for potential at which electro-reduction of oxygen begins: no substrate
From the text: Electrochemical information on electrodes modified with RL5 laccase in absence of substrate was also obtained (FIGS. 3C,D). Again, we found some differences when the electrode material was gold or glassy carbon. Thus, the electro-reduction of oxygen begins in +250 mV when the electrode was gold (FIG. 3C), while it began at +500 mv when it was glassy carbon (FIG. 3D). We found additional information on the glassy carbon electrode compared with the gold electrode. Thus, when removing the oxygen from solution, the T1 copper site oxidization potential of 740 mV vs. NHE was registered. In addition, when a reactivation with oxygen was performed, the three oxidation potential peaks were registred: T1 of 745 mV vs. NHE was the highest; T3 site of 500 mV vs. NHE had two copper ions, so it is the one with a higher area; T2 site had 400 mV vs. NHE. The redox potential of T1 was registered to be in the range of fungal laccases (480-785 mV) (Solomon et al., 1996; Klonowska etal., 2002).
The electrochemical measurements have been performed with BAS CV-50W voltammetric analyzer. For gold surface experiments, a gold BAS disc electrode has been used. The electrode was cleaned according to the following procedure: the electrode was firstly immersed in “piranha” solution, containing 1 part of hydrogen peroxide 33% v and 3 parts of sulphuric acid 98%, during 5 minutes, after which the electrode was rinsed thoroughly with milliQ water, and polished with Buehler® micropolish gamma alumina #3, 0.05 micron size, during 5 minutes, on a polishing cloth, further immersed into a milliQ water solution and exposed to ultrasounds for 15 minutes. Then, the electrode was cleaned with sulphuric acid oxidization cyclic voltammetry for 30 minutes. The electrode was rinsed three times with milliQ water and polished again for another 5 minutes with the same alumina powder. After the subsequent sonication for 15 minutes, the electrode was finally inmersed into a reductive 0.5 M NaOH solution for 30 minutes and rinsed with milliQ water. The laccase enzyme was immobilized by dropping […] of the enzyme solution at a concentration of 5 mg/ml on the gold surface facing upward and covered to avoid evaporation. After 90 minutes, the second drop was added. After 180 minutes from the first addition, the laccase-modified gold electrode was measured in 100 mM phosphate buffer (pH 6.0) in the presence of oxygen. For measurements under anaerobic conditions, N2 was “bubbled” for 15 minutes into the electrochemical cell. The same procedure was repeated for measuring in presence of 2,6-dimethoxyphenol, used as a test substrate. The immobilization on the carbon electrode was performed on a BAS glassy carbon electrode. The electrode was polished on a graphite-polishing cloth for 5 minutes, until mirror-like surface was achieved. The electrode was rinsed thoroughly with water and, facing upwards, 20 μl of the laccase solution (5 mg/ml) were dropped on the classy carbon surface. The electrode was covered and let to immobilize for 20 minutes. All electrochemical measurements performed for the gold electrode are repeated for this electrode.

[6] = Laccase activity, 1-HBT as substrate; format: biochemical
[7] = glassy carbon, after reactivation with oxygen, vs. NHE

B1: RL5: polypeptide with laccase activity from bovine rumen metagenome library, amino acid sequence of FIG. 11 (protein)
chain: MIELEKLDFAKSVEGVEAFSTTRGQVDGRNAYSGVNLCDYVGDDALRVLDARLTLAMQLGVDLDDLVMPRQTHSCRVAVIDERFRALDIDEQEAALEGVDALVTRLQGIVIGVNTADCVPIVLVDSQAGIVAVSHAGWRGTVGRIAKAVVEEMCRQGATVDRIQAAMGPSICQDCFEVGDEVVEAFKKAHFNLNDIVVRNPATGKAHIDLRAANRAVLVAAGVPAANIVESQHCSRCEHTSFFSARRLGINSGRTFTGIYRK
modifications: Description of sequence Amino acid sequence of RL5 laccase 3217 to 2414 frame 1 - 262 amino acids (see Figure 11)
oxidation of benzo[a]pyrene [1]: oxidized
substrate of the laccase [2]: not substrates
Poly R-478 solution oxidized [3]: more than 70%
electrochemical activity (current) ([4]; carbon electrode, presence of oxygen): 2.8 microamperes
T2 copper oxidization potential site ([4]; carbon electrode, vs. normal hydrogen electrode (NHE)): +500
electrochemical activity (current) ([4]; gold electrode, absence of oxygen): 0.69 microamperes
electrochemical activity (current) ([4]; gold electrode, presence of oxygen): 0.38 microamperes
potential at which electro-reduction of oxygen begins ([5]; glassy carbon electrode): +500 mv
T1 oxidation potential [5, 7]: 745 mV
T2 site oxidation potential [5, 7]: 400 mV
T3 site oxidation potential [5, 7]: 500 mV
T1 copper site oxidization potential ([5]; glassy carbon, oxygen removed from solution, vs. NHE): 740 mV
potential at which electro-reduction of oxygen begins ([5]; gold electrode): +250 mV
substrate of the laccase [6]: not substrates
